Legend:
[1] = system: CC(C)CCC[C@@H](C)[C@H]1CC[C@H]2[C@@H]3CC=C4C[C@@H](O[C@H]5O[C@H](CO)[C@@H](O)[C@H](O)[C@H]5O)CC[C@]4(C)[C@H]3CC[C@]12C; assay: purified protein; settings: Ca2+ acyl acceptor; sequential rapid-equilibrium random bi-bi mechanism
[2] = system: CCCCCCCCCCCCCC(=O)OC[C@H](COP(=O)(O)OCCN)OC(=O)CCCCCCCCCCCCC; assay: purified protein; settings: Ca2+ acyl donor; phospholipase A1-type, a1-position acyl chain transferred to CG

cholesteryl α-D-glucopyranoside 6′-acyltransferase (CGAT) (Helicobacter pylori 26695)
Km [1]: 26.0 µM | Km [2]: 290 µM
